Biological target: GST (glutathione S-transferase) released from the GST-P fusion protein (S. japonicum)
Test: SEC

“GST (glutathione S-transferase) released from the GST-P fusion protein (natural protein)” was tested, and the stoichiometry N was 2.

Source: article PMC12409746
